According to PMC10809841, “Transferrin Is Up-Regulated by Microbes and Acts as a Negative Regulator of Immunity to Induce Intestinal Immunotolerance” (Research, 2024):

Columns and labels:
[1] = biological target: T1, transferrin (UniProt P02787 20-698); experiment: SPR; BIAcore 2000; transferrin coupled at a CM5 sensor chip, CD14 flowed over; details in the Supplementary Materials (not shown); settings: both partners purified
T1 construct: transferrin (serotransferrin), the iron transporter of serum; probably the mature plasma protein; also called Tf; WT-Tf

[2] = biological target: T1, transferrin; experiment: not stated; direct binding of TC6 (Fig. S9C to E); method not given

T1 sequence (P02787 20-698): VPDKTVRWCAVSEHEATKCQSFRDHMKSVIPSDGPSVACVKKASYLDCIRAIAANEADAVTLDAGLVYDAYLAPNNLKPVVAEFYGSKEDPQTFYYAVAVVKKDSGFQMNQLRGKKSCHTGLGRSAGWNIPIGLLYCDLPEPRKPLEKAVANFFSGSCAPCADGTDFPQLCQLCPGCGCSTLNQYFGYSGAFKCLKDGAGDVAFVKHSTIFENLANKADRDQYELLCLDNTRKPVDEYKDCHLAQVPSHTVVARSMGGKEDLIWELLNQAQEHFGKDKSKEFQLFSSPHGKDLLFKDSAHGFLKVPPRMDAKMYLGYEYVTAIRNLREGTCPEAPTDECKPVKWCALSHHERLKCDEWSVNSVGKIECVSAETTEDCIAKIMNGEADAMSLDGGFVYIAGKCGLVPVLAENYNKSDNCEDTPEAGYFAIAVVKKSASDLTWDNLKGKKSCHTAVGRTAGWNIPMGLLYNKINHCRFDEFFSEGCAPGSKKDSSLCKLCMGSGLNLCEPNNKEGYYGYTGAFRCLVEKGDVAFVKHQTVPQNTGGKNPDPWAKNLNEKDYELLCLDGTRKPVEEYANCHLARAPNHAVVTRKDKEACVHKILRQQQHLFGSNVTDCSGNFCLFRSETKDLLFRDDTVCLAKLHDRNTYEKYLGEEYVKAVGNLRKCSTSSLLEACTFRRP

| Kd [1] | koff [1] | kon [1] | Kd [2] | Binder |
| --- | --- | --- | --- | --- |
| 14 nM | 0.00033 s⁻¹ | 24000 M⁻¹ s⁻¹ | – | cluster of differentiation 14 (CD14) (receptor, UniProt P08571 20-345, looked up, CD14, TLR coreceptor; isolated protein used in SPR and native gel; Probably a soluble recombinant CD14; also called WT-CD14; wild-type CD14) TTPEPCELDDEDFRCVCNFSEPQPDWSEAFQCVSAVEVEIHAGGLNLEPFLKRVDADADPRQYADTVKALRVRRLTVGAAQVPAQLLVGALRVLAYSRLKELTLEDLKITGTMPPLPLEATGLALSSLRLRNVSWATGRSWLAELQQWLKPGLKVLSIAQAHSPAFSCEQVRAFPALTSLDLSDNPGLGERGLMAALCPHKFPAIQNLALRNTGMETPTGVCAALAAAGVQPHSLDLSHNSLRATVNPSAPRCMWSSALNSLNLSFAGLEQVPKGLPAKLRVLDLSCNRLNRAPQPDELPEVDNLTLDGNPFLVPGTALPHEGSMN |
| – | – | – | 13 nM | TTPEPC (designed peptide TC6; also called interference peptide TC6) [peptide TC6] |
